Signal to noise ratio, percent of total GST bound and percent of total GST not bound data for 2 substances are collected here from patent US20180017550A1.

In experiment [1] the target is wild-type human APC segment 3 of Exon 15 (codons 1,099 to 1,696) with N-terminal VSV-G and HSV epito (human) (UniProt P25054).
Experiment [2] concerns the target human p53 oncoprotein (cellular tumor antigen p53), cell-free expressed from pETBlue-2 with C-terminal HSV epitope tag and polyhistidine tag (human) (UniProt P04637). Nature of the experiment: protein adsorbed to polystyrene 96-well plate, anti-HSV-AP chemiluminescence; against the minus DNA negative control.
The target of experiment [3] is human alpha-tubulin, cell-free expressed with C-terminal HSV epitope tag and polyhistidine tag (human) (UniProt P50607). The description is as above.
The target in experiment [4] is human glutathione-s-transferase A2 (GST A2), cell-free expressed from pETBlue-2 with C-terminal HSV epitope tag and polyhistidine tag (human) (UniProt P09210). Nature of the experiment: cell-free expressed HSV-tagged GST captured on anti-HSV PC-antibody NeutrAvidin agarose beads; fractions quantified by fluorescence SDS-PAGE.
Sequence of human glutathione-s-transferase A2 (GST A2), cell-free expressed from pETBlue-2 with C-terminal HSV epitope tag and polyhistidine tag (human) (P09210 other isoform, or with tags, fused parts or gaps): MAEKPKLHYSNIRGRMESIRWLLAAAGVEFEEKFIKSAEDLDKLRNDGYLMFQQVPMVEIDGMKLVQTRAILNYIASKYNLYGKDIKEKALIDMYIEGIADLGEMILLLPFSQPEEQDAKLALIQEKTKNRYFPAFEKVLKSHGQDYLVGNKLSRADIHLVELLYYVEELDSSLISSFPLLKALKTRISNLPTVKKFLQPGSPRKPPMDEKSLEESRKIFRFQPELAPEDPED
The target is the same in experiment [5]. Nature of the experiment: BODIPY-FL labelled GST photo-released from magnetic beads and captured on anti-HSV antibody coated substrate; against the minus DNA blank.
The target is the same in experiment [6]. The experiment can be described thus: antibody-protein complex photo-released from beads, held on nickel chelate plate by the protein's polyhistidine tag; bound anti-HSV antibody read with anti-[mouse IgG] HRP; against the minus DNA negative control.
Experiment [7] deals with human dihydrofolate reductase (DHFR), cell-free expressed with C-terminal HSV and polyhistidine epitope tags (human) (UniProt P00374). The description is as above.

Sequence of wild-type human APC segment 3 of Exon 15 (codons 1,099 to 1,696) with N-terminal VSV-G and HSV epito (human) (P25054 other isoform, or with tags, fused parts or gaps limits assumed): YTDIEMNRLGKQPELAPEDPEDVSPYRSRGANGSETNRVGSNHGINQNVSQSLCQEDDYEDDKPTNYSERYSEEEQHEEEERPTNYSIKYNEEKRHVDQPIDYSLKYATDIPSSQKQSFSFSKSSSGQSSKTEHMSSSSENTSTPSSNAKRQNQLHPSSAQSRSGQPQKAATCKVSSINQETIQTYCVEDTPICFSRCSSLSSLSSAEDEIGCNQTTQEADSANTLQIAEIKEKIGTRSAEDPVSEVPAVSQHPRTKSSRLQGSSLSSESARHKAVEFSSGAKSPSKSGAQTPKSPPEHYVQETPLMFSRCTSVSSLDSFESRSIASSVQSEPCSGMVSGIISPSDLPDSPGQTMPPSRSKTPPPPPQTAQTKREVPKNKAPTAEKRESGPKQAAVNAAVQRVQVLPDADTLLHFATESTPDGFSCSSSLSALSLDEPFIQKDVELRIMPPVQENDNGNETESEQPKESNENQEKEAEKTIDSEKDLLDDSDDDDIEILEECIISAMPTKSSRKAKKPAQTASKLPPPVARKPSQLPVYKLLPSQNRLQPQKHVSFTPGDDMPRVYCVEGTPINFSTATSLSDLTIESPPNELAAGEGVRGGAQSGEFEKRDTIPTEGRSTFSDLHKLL

Regarding “anti-VSV antibody conjugated to the Cy3 fluorophore (clone P5D4; Sigma-Aldrich, St. Louis, Mo.)”, the signal to noise ratio in experiment [1] is 186 :1.
Regarding “mouse monoclonal anti-HSV tag antibody (EMD Biosciences, Inc., San Diego, Calif.)”, the signal to noise ratio in experiment [2] was 609 :1; in experiment [3], 140 :1; in experiment [5], 9 :1; in experiment [6], 108 :1; in experiment [7], 19 :1. In addition, the percent of total GST bound in experiment [4] came to 75%. The same substance registered a percent of total GST not bound in experiment [4] of 25%.
